Test results as given in the supplement of paper PMC12042874.
± gives the uncertainty stated by the source.

Test: amyloid nucleation score (Sup35N fusion, yeast selection) (log enrichment); library NNK3; higher = more nucleation; inactive = no reads after selection
In short: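 The nucleation score, computed with DiMSum, is the log enrichment of output over input reads, centred on the mode score of non-aggregating sequences. Sequences with under 100 input reads were dropped. Reads were generated by Illumina sequencing of plasmid inserts from psi-negative yeast with Sup35N fused to peptides of 20 random codons, induced with 100 μM copper sulfate for 24 hours and grown 7 days at 30°C on medium lacking adenine and uracil.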

Substance | amyloid nucleation score
RNYNYFINCVHWLYLVSWGL | 0.605 ± 0.45
VTVQLCSNLIMGTWRTRNVL | inactive
FKNCHGVVTRCQW | inactive
VRDFGLPTWAQLAWMYNANG | -0.229 ± 1.1
YTVMFLGANYSYVVKSMSRS | inactive
LSHAG | inactive
CNVGPVSLFRFMGPLNYRDE | inactive
VLVNGSGRNWEYYISRRFFF | inactive
LLHRTWVFNSELPWCRYVLK | inactive
CSCYENFELVPGFRRCRGMV | inactive
MTTVKTDCFSQSRYYRHWET | inactive
CFDCTVF | inactive
LIGLMWFVMWFFMARMREIN | inactive
LIYTGSAIIINRIWE | 2.17 ± 0.08
TAYFFSVARVMVDLTTALLA | 0.161 ± 0.33
KPQVPSN | inactive
RSGSLIGAVYRNMVVLNRMG | inactive
VLRSAYAALFLNRFSRFDCR | inactive
DGHMDR | inactive
NLSLLSLVSFEVEVIQCTMR | inactive
IIFWNICPAYCYL | 2.29 ± 0.059
SMNPIECYNAHLVSSGFWVQ | inactive
LCTESFIISR | inactive
LDVVRRMLKTH | inactive

Substance | amyloid nucleation score
IAMSRSACRYVFECYIYFFF | inactive
SKSKYHFYHHGEAWSTLVVV | inactive
LLRIPGF | inactive
KGGSVGHQQLYMCWQYNPVF | inactive
CVVELHHVCRVPMCPFCWTV | inactive
STLRSLCRPSGFGVAI | inactive
TMSRRAARMQCAILVPSRLL | inactive
VDRVYTLREFEVHGGTWFGV | inactive
SMLVELVFSLQTQSSGSSGR | -0.059 ± 0.43
TNVTANGVKPHPYPMRSPAT | inactive
YSRSQTMSTACNVVYVFSGQ | inactive
WRGKKSWAWPDQCLI | inactive
RRRERGASNVDELWF | inactive
LARRNTLVEGHDD | inactive
VVATILLVHPPVKHWSCDLM | -0.859 ± 0.73
SLLYEEPEVLINNSSGSAS | inactive
YYWDKLFCMYKTAHGVSIYV | inactive
GNYRLSLHVVL | 1.21 ± 0.18
TRLCFIAVPLSFFMVWDTSR | inactive
MYTKNPSVSILCFDENGERA | inactive
STVCWHMQRVASTVAL | inactive
FLFRNLVAWFMHSDLFFYGV | inactive
IRDVG | -0.573 ± 1
CIFLDGVAPFWMGESRWRSG | inactive

Substance | amyloid nucleation score
LVLRGKRSDV | inactive
RGQFYLLVARLNSKM | inactive
IHRNEYMMRKKDRILQNLAV | inactive
WVQHISLWSTMWNGPREAPM | inactive
MYIVRRKTICET | inactive
RHYLLCYIKRHTRLQIYKFS | inactive
YWFIAQAYKGRCVGSTVDKR | inactive
FLVTYKISWRYKSQQLCSYY | inactive
VFGGNVIKSYVKITFQPGFD | 2.22 ± 0.061
ALTAYLVNVWSKYTGMLFSC | inactive
MHNKVGPYTD | inactive
KYFTLDMNRKSISYL | inactive
QCSWLCIWMGVYLTLILSCA | 0.805 ± 0.17
SAVYMVSGIGNNSHTSAFIR | 0.614 ± 0.17
SAGWHTYRIKHPVSFVGKTI | inactive
IYVDVNSDP | inactive
LLLWSAIIYK | inactive
YKVGRSHCGKKSEDLP | inactive
MTVSVITAMGFTIGFFADNQ | 0.494 ± 0.26
FSQIPRYISNTKRWLWDYVN | inactive
HVNLIDTKNSLMQMLN | inactive
AGFLRDLMCDHLEDDGVPAV | inactive
VWCPRDFFVSFVPCQ | inactive
YSTPTDMLDLQFDKSASRGV | inactive

Substance | amyloid nucleation score
MVVVPDQLRVTGMRSGGKSG | inactive
IDVRGSMYGVMMYHSTRDVT | inactive
SFLIDPTHGLYSLRFFIFCW | inactive
FFYYLRSVLHSSYLFRRDVI | inactive
GSATVMIWQR | inactive
LNKLEVNDVSIGYVNCTLFK | inactive
YNHSMGWVCSAFDAKVRILR | inactive
LKFFVYLLNLYEDFLPVRFS | inactive
SRKVYEPKVPLAVSGCRMNV | inactive
FVRVALMYFVLKLTSRYKRN | inactive
CMFFLLPIIAYSV | inactive
ATTDGTVSCVYPRFRLFWCI | inactive
YGMYC | inactive
NCSGQTGFGPVMSYWTIDVR | -0.022 ± 0.59
TRSRFWRRTKLPLVSVRYHN | inactive
HALFGYISRVDNLYSSMVSH | inactive
LRVPSPYIFYKSKGHNIGSL | inactive
VYQQSWQVLDFVRWDTERME | inactive
TFRTTGM | inactive
GRCVEVCLIWLTKGDQQCSY | inactive
FYWGAFNPYFVLIGILAYYT | inactive
AVICYS | inactive
TVMLRRTRYVVYTVYRVVDV | inactive
VGNFSFD | 0.845 ± 0.16

Substance | amyloid nucleation score
YMNSTFQMFD | 0.829 ± 0.19
FFRSCWCFVLLLNDCMITSL | inactive
SFLPTV | 0.93 ± 0.23
GAQSSTEIAQFYKNGMTSNQ | inactive
QSFLDTSPHLDHVVNNSIKH | inactive
KGYCFAYRQNSVELIP | inactive
FFVFVR | 1.3 ± 0.15
DFDAFRFIHVVSWFGFTIYP | inactive
NGFMDNCAVSCRTIIVVSYR | 2.59 ± 0.074
QDAMSTEVEGTF | inactive
PQDKRASACRVWAPNKNGRG | inactive
LVVCYGNWMRLVGIFINGNS | inactive
YPLYASTS | 1.07 ± 0.16
STPHAHIRSLFMSGYGILTN | inactive
SHSLS | inactive
SAGAQSHSIYRAAVLSACLY | inactive
GLDLSSYPEL | inactive
RSALRVM | inactive
VPRVSSTQDCNRLILRKVCL | inactive
LAVVNYQSFTNVEWVGNRIK | inactive
HTGHHWNRLHETQNSRL | inactive
